Several values for one entry are separate records, joined by “and”; a condition that tells them apart may be missing. Identical values can stand only once. Like-named read-outs stand apart in the source and are kept apart here. Residues, ends and D or L forms follow the SMILES beside them.

One may read the tissue uptake as the share of the injected amount in each gram of the tissue. Broadly, the Kd is the equilibrium constant for the complex coming apart.

A short description of one data set: in vivo. Conditions: female, NOD SCID, mouse, tumor (SK-BR-3 xenograft), iv, 0.37 MBq, total radioactivity.
Data set [1] has as its target HER2 protein (Homo sapiens, UniProt P04626). Nature of the data set: Surface plasmon resonance of peptides toward HER2 protein. Format: binding. A general note: Surface plasmon resonance follows binding to a sensor surface in real time, without labels.
Data set [2] has as its target HER2 on SK-BR-3 cells (HER2-positive human breast cancer cell line) (human (endogenous in SK-BR-3)) (UniProt P04626).
The target in data set [3] is T1, HER2 protein (human, UniProt P04626 23-652).
T1 construct: human epidermal growth factor receptor 2 (HER2), soluble protein used as SPR analyte; also called human epidermal growth factor receptor 2
In words: SPR; Plexera PlexArray HT; sulfhydryl peptides printed on a bare gold chip through the cysteine thiol, blocked with 5% nonfat milk; protein flowed over in PBS (HER2 at 70.4, 35.2, 17.6 and 8.8 nM); regeneration 0.5% H3PO4; EGFR, HER3 and HER4 as controls with the same procedure. Conditions: both partners purified.

Protocol for in vivo: The animals were randomly chosen for in vivo assays when the tumor size reached 100–150 mm^3 (1–2 weeks after inoculation).
Each mouse was injected with 0.37 MBq (~ 0.03 µg) of tracer to evaluate the distribution of the probe in tumors and major organs (4 mice/group). The mice were sacrificed and dissected at 0.5, 1 and 2 h p.i. Blood, tumor, liver, kidney and other major organs were collected and weighed, and their radioactivity was counted in a Wallac 1480 γ-counter (Perkin-Elmer, Waltham, MA). […] All biodistribution data are presented as the percentage of injected dose per gram of tissue (%ID/g).

With `CC(C)C[C@@H](NC(=O)[C@@H](CCCNC(=N)N)NC(=O)[C@@H](CC(C)C)NC(=O)[C@@H](CCC(=O)O)NC(=O)[C@@H](Cc1c[nH]c2ccccc12)NC(=O)[C@@H](CC(N)=O)NC(=O)[C@@H](CCCNC(=N)N)NC(=O)CCOCCOCCOCCOCCNC(=O)c1ccc(NN=Cc2ccccc2S(=O)(=O)O)nc1)C(=O)N[C@H](CCCCN)C(=O)O` [^99mTc-HP-rk, metal not drawn], the tissue uptake at 0.5 h in “in vivo” was 1.94 ± 0.12 %ID/g.

Regarding `CC(C)C[C@@H](NC(=O)[C@@H](CCCNC(=N)N)NC(=O)[C@@H](CC(C)C)NC(=O)[C@@H](CCC(=O)O)NC(=O)[C@@H](Cc1c[nH]c2ccccc12)NC(=O)[C@@H](CC(N)=O)NC(=O)[C@@H](CCCNC(=N)N)NC(=O)CCCCCCCNC(=O)CC[C@H](N)C(=O)NCCCCCCCC(=O)N[C@H](CCCNC(=N)N)C(=O)N[C@H](CC(N)=O)C(=O)N[C@H](Cc1c[nH]c2ccccc12)C(=O)N[C@H](CCC(=O)O)C(=O)N[C@H](CC(C)C)C(=O)N[C@H](CCCNC(=N)N)C(=O)N[C@H](CC(C)C)C(=O)N[C@H](CCCCN)C(=O)O)C(=O)N[C@H](CCCCN)C(=O)O` [Ark2], the Kd on HER2 protein [1] (read-out: dissociation constant (KD) to HER2 protein, SPR, Plexera PlexArray HT, Cys-peptides printed on gold chip, HER2 protein 8.8-70.4 nM in PBS, from fitted association/dissociation rates) was 10 nM.

As to `CC(C)C[C@H](NC(=O)[C@H](CCCNC(=N)N)NC(=O)[C@H](CC(C)C)NC(=O)[C@@H](N)CCCCN)C(=O)N[C@@H](CCC(=O)O)C(=O)N[C@@H](Cc1c[nH]c2ccccc12)C(=O)N[C@@H](CC(N)=O)C(=O)N[C@@H](CCCNC(=N)N)C(=O)O` [H10F] (H-KLRLEWNR-OH), on HER2 protein [1], the Kd is 70 nM and 70.2 nM.

In the case of “^99mTc-HP-Ark2, ^99mTc-{HYNIC-PEG4-Glu[8-aminooctanoic-D(RNWELRLK)]2/Tricine/TPPTS} (peptide)”, in data set [2], the tumor uptake in the SK-BR-3 tumor model at 0.5 h p.i. (biodistribution, n = 4) is 3.99 %ID/g and the tumor uptake in the SK-BR-3 tumor model at 0.5 h p.i. with coinjection of excess cold rk peptide (blocking group, n = 4) amounted to 1.42 %ID/g.

B1: Cys-H10F (sulfhydryl form of the L-peptide H10F, KLRLEWNR) (peptide)
peptide: KLRLEWNR
notes: HER2-targeting L-peptide H10F; also called parental L-peptide; source: synthetic peptide, bought: GL Biochem Ltd
For the molecule B1, in the data set with HER2 protein [3], binding was put at a Kd of 70.2 nM.

These data come from paper PMC9835228 (Journal of Translational Medicine, 2023).
